Laboratory results taken from article PMC4977154, “Structural mechanism of ligand activation in human calcium-sensing receptor” (eLife, 2016).

Legend:
[1] = target: the molecule itself; test: SEC; Superdex-200 size exclusion chromatography of secreted wild-type CaSR ECD; 20 mM Tris pH 8.0, 150 mM NaCl
[2] = target: the molecule itself; test: crystal structure; form I crystal, space group F222, one molecule per asymmetric unit, homodimer with a crystallographic symmetry-related molecule; 1.5 M Li2SO4, 100 mM Tris pH 8.5, 2 mM CaCl2, 20°C; inactive (open-open) state
[3] = target: the molecule itself; test: SDS gel under reducing and non-reducing conditions; purified CaSR ECD mutant (N386Q, S402N, N468Q) after Superdex-200, with (+DTT) and without (-DTT) reducing agent

B1: wild-type human CaSR ECD (domain or fragment, UniProt P41180 20-612, looked up)
chain: YGPDQRAQKKGDIILGGLFPIHFGVAAKDQDLKSRPESVECIRYNFRGFRWLQAMIFAIEEINSSPALLPNLTLGYRIFDTCNTVSKALEATLSFVAQNKIDSLNLDEFCNCSEHIPSTIAVVGATGSGVSTAVANLLGLFYIPQVSYASSSRLLSNKNQFKSFLRTIPNDEHQATAMADIIEYFRWNWVGTIAADDDYGRPGIEKFREEAEERDICIDFSELISQYSDEEEIQHVVEVIQNSTAKVIVVFSSGPDLEPLIKEIVRRNITGKIWLASEAWASSSLIAMPQYFHVVGGTIGFALKAGQIPGFREFLKKVHPRKSVHNGFAKEFWEETFNCHLQEGAKGPLPVDTFLRGHEESGDRFSNSSTAFRPLCTGDENISSVETPYIDYTHLRISYNVYLAVYSIAHALQDIYTCLPGRGLFTNGSCADIKKVEAWQVLKHLRHLNFTNNMGEQVTFDECGDLVGNYSIINWHLSPEDGSIVFKEVGYYNVYAKKGERLFINEEKILWSGFSREVPFSNCSRDCLAGTRKGIIEGEPTCCFECVECPDGEYSDETDASACNKCPDDFWSNENHTSCIAKEIEFLSWTEPF
modifications: heavily glycosylated
notes: signal peptide in the construct; human calcium-sensing receptor (CaSR), extracellular domain, residues 1-612; The C-terminal Flag tag is told for 'each construct' in the paragraph on the mutants; the wild type was also purified on anti-Flag M2 and held by anti-Flag M2 in the scintillation proximity assay with L-Trp (not a protein-protein experiment); also called wt-CaSR ECD; extracellular domain …
binding result [1]: binds

B2: human CaSR ECD mutant carrying two glycosylation-site mutations (N386Q, S402N), partially deglycosylated with Endo H (domain or fragment, UniProt P41180 20-612, looked up)
chain: YGPDQRAQKKGDIILGGLFPIHFGVAAKDQDLKSRPESVECIRYNFRGFRWLQAMIFAIEEINSSPALLPNLTLGYRIFDTCNTVSKALEATLSFVAQNKIDSLNLDEFCNCSEHIPSTIAVVGATGSGVSTAVANLLGLFYIPQVSYASSSRLLSNKNQFKSFLRTIPNDEHQATAMADIIEYFRWNWVGTIAADDDYGRPGIEKFREEAEERDICIDFSELISQYSDEEEIQHVVEVIQNSTAKVIVVFSSGPDLEPLIKEIVRRNITGKIWLASEAWASSSLIAMPQYFHVVGGTIGFALKAGQIPGFREFLKKVHPRKSVHNGFAKEFWEETFNCHLQEGAKGPLPVDTFLRGHEESGDRFSQSSTAFRPLCTGDENINSVETPYIDYTHLRISYNVYLAVYSIAHALQDIYTCLPGRGLFTNGSCADIKKVEAWQVLKHLRHLNFTNNMGEQVTFDECGDLVGNYSIINWHLSPEDGSIVFKEVGYYNVYAKKGERLFINEEKILWSGFSREVPFSNCSRDCLAGTRKGIIEGEPTCCFECVECPDGEYSDETDASACNKCPDDFWSNENHTSCIAKEIEFLSWTEPF
modifications: partially deglycosylated with Endo H; N-acetyl-glucosamine seen at Asn261, Asn287, Asn446, Asn468, Asn488, Asn541, Asn594; inter-subunit disulfide bond formed by C129
notes: signal peptide in the construct; human calcium-sensing receptor (CaSR), extracellular domain, residues 1-612; modelled residues 21-130 and 136-603; Disulfide-linked homodimer; cloned into the pFBDM vector; also called calcium-sensing receptor extracellular domain; form I crystal protein; source: sf9 insect cells infected with baculovirus, with kifunensine, secreted
binding result [2]: binds

B3: human CaSR ECD mutant carrying three glycosylation-site mutations (N386Q, S402N and N468Q) (domain or fragment, UniProt P41180 20-612, looked up)
chain: YGPDQRAQKKGDIILGGLFPIHFGVAAKDQDLKSRPESVECIRYNFRGFRWLQAMIFAIEEINSSPALLPNLTLGYRIFDTCNTVSKALEATLSFVAQNKIDSLNLDEFCNCSEHIPSTIAVVGATGSGVSTAVANLLGLFYIPQVSYASSSRLLSNKNQFKSFLRTIPNDEHQATAMADIIEYFRWNWVGTIAADDDYGRPGIEKFREEAEERDICIDFSELISQYSDEEEIQHVVEVIQNSTAKVIVVFSSGPDLEPLIKEIVRRNITGKIWLASEAWASSSLIAMPQYFHVVGGTIGFALKAGQIPGFREFLKKVHPRKSVHNGFAKEFWEETFNCHLQEGAKGPLPVDTFLRGHEESGDRFSQSSTAFRPLCTGDENINSVETPYIDYTHLRISYNVYLAVYSIAHALQDIYTCLPGRGLFTNGSCADIKKVEAWQVLKHLRHLQFTNNMGEQVTFDECGDLVGNYSIINWHLSPEDGSIVFKEVGYYNVYAKKGERLFINEEKILWSGFSREVPFSNCSRDCLAGTRKGIIEGEPTCCFECVECPDGEYSDETDASACNKCPDDFWSNENHTSCIAKEIEFLSWTEPF
modifications: N-acetyl-glucosamine seen at Asn90, Asn287, Asn488, Asn541 of one protomer and Asn541 of the other
notes: signal peptide in the construct; human calcium-sensing receptor (CaSR), extracellular domain, residues 1-612; modelled residues 20-119, 135-359, 393-598 in one protomer and 22-122, 136-360, 392-602 in the other; Disulfide-tethered homodimer; cloned into the pFBDM vector; also called calcium-sensing receptor extracellular domain; form II crystal protein; source: sf9 insect cells infected with …
binding result [3]: binds
